Reference: the supplement of paper PMC7125110
± gives the standard error. Fewer inactive variants are shown than the library holds.

B1: glmS ribozyme (parent)
chain: AUAAAAGCGCCAGAACUACAGAAAUGUAGUUGACGAGGAGGAGGUUUAUCGAAUUUUCGGCGGAUGCCUCCAAA

Variants of: B1
Assay: self-cleavage kobs at 2500 uM GlcN6P; higher = faster cleavage; RNA array
Settings: with glucosamine-6-phosphate
In short: (§1)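 Tiles of sequenced MiSeq chips were imaged over ~14 h at 37 °C. On them, barcoded ribozyme variants had been transcribed in situ by E. coli RNA polymerase and were tracked via a hybridised Cy3 probe while glucosamine-6-phosphate (40 μM to 10 mM) in HEPES/KCl/Mg(OAc)2 buffer flowed in. Per-tile medians, normalised to baseline and to non-cleaving reference variants, were fit to one- or two-exponential decays for kobs, and weighted Michaelis–Menten fits gave kcat and KM.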

Q: With G9U C11U A33G G40U U69G as the variant, how does the “self-cleavage kobs at 2500 uM GlcN6P” value read?
A: < 1e-05 s⁻¹

Q: How did the “self-cleavage kobs at 2500 uM GlcN6P” value turn out when G9A U31C A52U was run?
A: < 1e-05 s⁻¹

Q: How did the “self-cleavage kobs at 2500 uM GlcN6P” value turn out when C8A C11U C70U was run?
A: < 1e-05 s⁻¹

Q: For G9U C11G A12G A48U G51C, which “self-cleavage kobs at 2500 uM GlcN6P” value is on record?
A: < 1e-05 s⁻¹

Q: How did the “self-cleavage kobs at 2500 uM GlcN6P” value turn out when C8A A39C G59U A64C was run?
A: < 1e-05 s⁻¹

Q: Which “self-cleavage kobs at 2500 uM GlcN6P” value does the source give for C11U A12C G32U here?
A: < 1e-05 s⁻¹

Q: With C8A A12C C68U as the variant, how does the “self-cleavage kobs at 2500 uM GlcN6P” value read?
A: < 1e-05 s⁻¹

Q: For C11A C34G U49A, which “self-cleavage kobs at 2500 uM GlcN6P” value is on record?
A: < 1e-05 s⁻¹

Q: With C10U G40A A52C G60U as the variant, how does the “self-cleavage kobs at 2500 uM GlcN6P” value read?
A: < 1e-05 s⁻¹

Q: C10U G40A C70G was tested. Which “self-cleavage kobs at 2500 uM GlcN6P” value did it give?
A: < 1e-05 s⁻¹

Q: For C8U A39G G60C, which “self-cleavage kobs at 2500 uM GlcN6P” value is on record?
A: < 1e-05 s⁻¹

Q: How did the “self-cleavage kobs at 2500 uM GlcN6P” value turn out when C11U C16A U56G was run?
A: 0.000124 ± 4.3e-05 s⁻¹

Q: Which “self-cleavage kobs at 2500 uM GlcN6P” value does the source give for A6U A14C U45A A48G G66U here?
A: < 1e-05 s⁻¹

Q: For C10G G32U G62U U65G, which “self-cleavage kobs at 2500 uM GlcN6P” value is on record?
A: < 1e-05 s⁻¹

Q: Which “self-cleavage kobs at 2500 uM GlcN6P” value does the source give for C10A A64C C67G here?
A: 8.61e-05 ± 3.1e-05 s⁻¹

Q: For G7U A33U G35C G44C U45G G66U, which “self-cleavage kobs at 2500 uM GlcN6P” value is on record?
A: < 1e-05 s⁻¹

Q: C11G C61A C68A was tested. Which “self-cleavage kobs at 2500 uM GlcN6P” value did it give?
A: 8.83e-05 ± 2.3e-05 s⁻¹

Q: A6G U30A A39G was tested. Which “self-cleavage kobs at 2500 uM GlcN6P” value did it give?
A: 8.54e-05 ± 2.8e-05 s⁻¹

Q: G7U G41A U47G C71G was tested. Which “self-cleavage kobs at 2500 uM GlcN6P” value did it give?
A: < 1e-05 s⁻¹

Q: With A6U A36C U55G as the variant, how does the “self-cleavage kobs at 2500 uM GlcN6P” value read?
A: < 1e-05 s⁻¹

Q: Which “self-cleavage kobs at 2500 uM GlcN6P” value does the source give for C10U A42C G62A U65G C68U here?
A: < 1e-05 s⁻¹

Q: G7A C34U A36C was tested. Which “self-cleavage kobs at 2500 uM GlcN6P” value did it give?
A: < 1e-05 s⁻¹

Q: For G7A C8A G41U, which “self-cleavage kobs at 2500 uM GlcN6P” value is on record?
A: < 1e-05 s⁻¹

Q: How did the “self-cleavage kobs at 2500 uM GlcN6P” value turn out when C8A G9U A15C U31A G32A C70A was run?
A: < 1e-05 s⁻¹

Q: C11U G40A U49C G59C was tested. Which “self-cleavage kobs at 2500 uM GlcN6P” value did it give?
A: < 1e-05 s⁻¹

Q: How did the “self-cleavage kobs at 2500 uM GlcN6P” value turn out when G9U C16G G29C A52U G59U was run?
A: < 1e-05 s⁻¹

Q: For C8G C11A G43A, which “self-cleavage kobs at 2500 uM GlcN6P” value is on record?
A: < 1e-05 s⁻¹

Q: C8G A12G G51U C58U C67A C68U was tested. Which “self-cleavage kobs at 2500 uM GlcN6P” value did it give?
A: 0.000214 ± 7.9e-05 s⁻¹

Q: With C11A A52U U65C as the variant, how does the “self-cleavage kobs at 2500 uM GlcN6P” value read?
A: < 1e-05 s⁻¹

Q: How did the “self-cleavage kobs at 2500 uM GlcN6P” value turn out when C11U A39U U49A U69C was run?
A: < 1e-05 s⁻¹

Q: Which “self-cleavage kobs at 2500 uM GlcN6P” value does the source give for A6U A12C C34U A48G C61G A64U here?
A: < 1e-05 s⁻¹

Q: G9C A14G U69G was tested. Which “self-cleavage kobs at 2500 uM GlcN6P” value did it give?
A: < 1e-05 s⁻¹

Q: For C10G A12U G13C G32A, which “self-cleavage kobs at 2500 uM GlcN6P” value is on record?
A: < 1e-05 s⁻¹

Q: For G7U G35C G43A A48G, which “self-cleavage kobs at 2500 uM GlcN6P” value is on record?
A: < 1e-05 s⁻¹

Q: With C8G C58G as the variant, how does the “self-cleavage kobs at 2500 uM GlcN6P” value read?
A: < 1e-05 s⁻¹

Q: C8U G13U G59U was tested. Which “self-cleavage kobs at 2500 uM GlcN6P” value did it give?
A: < 1e-05 s⁻¹

Q: How did the “self-cleavage kobs at 2500 uM GlcN6P” value turn out when G7U C16U U46G was run?
A: < 1e-05 s⁻¹

Q: How did the “self-cleavage kobs at 2500 uM GlcN6P” value turn out when C8A C50U A64U was run?
A: < 1e-05 s⁻¹

Q: A6G U54G C70U was tested. Which “self-cleavage kobs at 2500 uM GlcN6P” value did it give?
A: 0.0001 ± 2.2e-05 s⁻¹

Q: Which “self-cleavage kobs at 2500 uM GlcN6P” value does the source give for G7C U31C U46C G66U here?
A: < 1e-05 s⁻¹

Q: How did the “self-cleavage kobs at 2500 uM GlcN6P” value turn out when A6U G9C A33C C50G A52C U56C C68A C71U was run?
A: < 1e-05 s⁻¹

Q: How did the “self-cleavage kobs at 2500 uM GlcN6P” value turn out when G7A C8G C10G G35C was run?
A: < 1e-05 s⁻¹

Q: C10G G37C C67U was tested. Which “self-cleavage kobs at 2500 uM GlcN6P” value did it give?
A: < 1e-05 s⁻¹

Q: With G7U G44U A53U as the variant, how does the “self-cleavage kobs at 2500 uM GlcN6P” value read?
A: < 1e-05 s⁻¹

Q: How did the “self-cleavage kobs at 2500 uM GlcN6P” value turn out when C8G A14G G44C U54A C71U was run?
A: < 1e-05 s⁻¹

Q: With A6U U31A G37C U54A as the variant, how does the “self-cleavage kobs at 2500 uM GlcN6P” value read?
A: < 1e-05 s⁻¹

Q: For G9A U56G G60A, which “self-cleavage kobs at 2500 uM GlcN6P” value is on record?
A: < 1e-05 s⁻¹

Q: How did the “self-cleavage kobs at 2500 uM GlcN6P” value turn out when G9A G29C G37U A48G A52C C70G was run?
A: < 1e-05 s⁻¹

Q: How did the “self-cleavage kobs at 2500 uM GlcN6P” value turn out when C11A G37A G38C was run?
A: < 1e-05 s⁻¹

Q: How did the “self-cleavage kobs at 2500 uM GlcN6P” value turn out when C8A C34G G66C was run?
A: < 1e-05 s⁻¹

Q: For C10G U30C G38C U47A, which “self-cleavage kobs at 2500 uM GlcN6P” value is on record?
A: < 1e-05 s⁻¹

Q: For G7A C67A U69A, which “self-cleavage kobs at 2500 uM GlcN6P” value is on record?
A: < 1e-05 s⁻¹

Q: How did the “self-cleavage kobs at 2500 uM GlcN6P” value turn out when C8G A12G U54G A64C U65A C71G was run?
A: < 1e-05 s⁻¹

Q: A6U C50U C68G C71A was tested. Which “self-cleavage kobs at 2500 uM GlcN6P” value did it give?
A: 8.39e-05 ± 3e-05 s⁻¹

Q: C8G G9U A14U A15U A64G C70U was tested. Which “self-cleavage kobs at 2500 uM GlcN6P” value did it give?
A: < 1e-05 s⁻¹

Q: Which “self-cleavage kobs at 2500 uM GlcN6P” value does the source give for G7U G59A C61U here?
A: < 1e-05 s⁻¹

Q: Which “self-cleavage kobs at 2500 uM GlcN6P” value does the source give for C10U G32A C70U here?
A: 6.3e-05 ± 3e-05 s⁻¹

Q: How did the “self-cleavage kobs at 2500 uM GlcN6P” value turn out when G7A A14G G38A was run?
A: < 1e-05 s⁻¹

Q: Which “self-cleavage kobs at 2500 uM GlcN6P” value does the source give for C10G A42G G43A here?
A: < 1e-05 s⁻¹

Q: For A6G U55C C71A, which “self-cleavage kobs at 2500 uM GlcN6P” value is on record?
A: < 1e-05 s⁻¹

Q: Which “self-cleavage kobs at 2500 uM GlcN6P” value does the source give for C10A G13U A36U U55C C67U here?
A: < 1e-05 s⁻¹

Q: Which “self-cleavage kobs at 2500 uM GlcN6P” value does the source give for C8G A15G U31A G40C G63C here?
A: < 1e-05 s⁻¹

Q: Which “self-cleavage kobs at 2500 uM GlcN6P” value does the source give for G9A G29C G38C A64U here?
A: < 1e-05 s⁻¹

Q: Which “self-cleavage kobs at 2500 uM GlcN6P” value does the source give for C8G C11A A33U G44A C58U here?
A: < 1e-05 s⁻¹

Q: For C8G A39C C58U, which “self-cleavage kobs at 2500 uM GlcN6P” value is on record?
A: < 1e-05 s⁻¹

Q: A6U C16U A53G C71G was tested. Which “self-cleavage kobs at 2500 uM GlcN6P” value did it give?
A: 5.25e-05 ± 2.3e-05 s⁻¹

Q: A6U G9A C68U was tested. Which “self-cleavage kobs at 2500 uM GlcN6P” value did it give?
A: < 1e-05 s⁻¹

Q: How did the “self-cleavage kobs at 2500 uM GlcN6P” value turn out when C8U G43C A52U C70U was run?
A: < 1e-05 s⁻¹

Q: With C11A C34A A42C C70A as the variant, how does the “self-cleavage kobs at 2500 uM GlcN6P” value read?
A: < 1e-05 s⁻¹

Q: How did the “self-cleavage kobs at 2500 uM GlcN6P” value turn out when C10U A53G G66U C68G was run?
A: 4.34e-05 ± 1.4e-05 s⁻¹

Q: C10U A42C G43U C67A was tested. Which “self-cleavage kobs at 2500 uM GlcN6P” value did it give?
A: < 1e-05 s⁻¹

Q: Which “self-cleavage kobs at 2500 uM GlcN6P” value does the source give for C10U U57G C67U C70U here?
A: 6.12e-05 ± 2.7e-05 s⁻¹

Q: How did the “self-cleavage kobs at 2500 uM GlcN6P” value turn out when C8G A52G G59A was run?
A: < 1e-05 s⁻¹

Q: G9U G32U G38U A42U was tested. Which “self-cleavage kobs at 2500 uM GlcN6P” value did it give?
A: < 1e-05 s⁻¹

Q: For G7A C10A A48G, which “self-cleavage kobs at 2500 uM GlcN6P” value is on record?
A: < 1e-05 s⁻¹

Q: Which “self-cleavage kobs at 2500 uM GlcN6P” value does the source give for C11U C16U C61U here?
A: < 1e-05 s⁻¹

Q: How did the “self-cleavage kobs at 2500 uM GlcN6P” value turn out when C8A G38A G63U C68U was run?
A: < 1e-05 s⁻¹

Q: For C11A G21U A39C U46A U57C, which “self-cleavage kobs at 2500 uM GlcN6P” value is on record?
A: < 1e-05 s⁻¹

Q: With C8A G32U G37U as the variant, how does the “self-cleavage kobs at 2500 uM GlcN6P” value read?
A: < 1e-05 s⁻¹

Q: How did the “self-cleavage kobs at 2500 uM GlcN6P” value turn out when G7A A33C C58U U65G C70G was run?
A: < 1e-05 s⁻¹

Q: With C10A G38C C58G as the variant, how does the “self-cleavage kobs at 2500 uM GlcN6P” value read?
A: < 1e-05 s⁻¹

Variants of: B1
Assay: self-cleavage kobs at 10000 uM GlcN6P; higher = faster cleavage; RNA array
Settings: with glucosamine-6-phosphate
In short: as §1

Q: How did the “self-cleavage kobs at 10000 uM GlcN6P” value turn out when G9U C11U A33G G40U U69G was run?
A: < 1e-05 s⁻¹

Q: Which “self-cleavage kobs at 10000 uM GlcN6P” value does the source give for G9A U31C A52U here?
A: < 1e-05 s⁻¹

Q: For G9U C16G G29C A52U G59U, which “self-cleavage kobs at 10000 uM GlcN6P” value is on record?
A: < 1e-05 s⁻¹

Q: How did the “self-cleavage kobs at 10000 uM GlcN6P” value turn out when A6U G9C A33C C50G A52C U56C C68A C71U was run?
A: < 1e-05 s⁻¹

Q: Which “self-cleavage kobs at 10000 uM GlcN6P” value does the source give for C10U A42C G43U C67A here?
A: < 1e-05 s⁻¹
